Like-named read-outs stand apart in the source and are kept apart here. No end group written: not given here. *: point of attachment. aminohexane = linker joining biotin to the N-terminal residue; Biotin = O=C1N[C@H]2[C@H](CS[C@H]2CCCCC(=O)*)N1
What was measured:
Assay in all cases: cell-based or functional assay
[1] = molecular target: T1, CDK1/cyclin A2 (UniProt P06493 1-297; P20248 1-432, limits assumed)
[2] = molecular target: T2, CDK6/cyclin D3 (UniProt Q00534 1-326; P30281 1-292)
[3] = molecular target: T3, CDK2/cyclin E1 (UniProt P24941 1-298; P24864 1-410)
[4] = molecular target: T4, CDK4/cyclin D3 (UniProt P11802 1-303; P30281 1-292)
T4 sequence (P11802 whole entry, chain 1 of 2): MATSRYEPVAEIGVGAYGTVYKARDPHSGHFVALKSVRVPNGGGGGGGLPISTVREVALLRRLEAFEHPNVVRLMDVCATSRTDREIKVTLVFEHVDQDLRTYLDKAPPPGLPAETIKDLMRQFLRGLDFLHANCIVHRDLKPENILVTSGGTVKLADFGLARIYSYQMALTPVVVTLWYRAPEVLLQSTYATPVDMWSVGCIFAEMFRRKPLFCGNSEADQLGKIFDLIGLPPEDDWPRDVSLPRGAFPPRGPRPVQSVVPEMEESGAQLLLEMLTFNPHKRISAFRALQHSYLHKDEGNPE
T4 sequence (P30281 whole entry, chain 2 of 2): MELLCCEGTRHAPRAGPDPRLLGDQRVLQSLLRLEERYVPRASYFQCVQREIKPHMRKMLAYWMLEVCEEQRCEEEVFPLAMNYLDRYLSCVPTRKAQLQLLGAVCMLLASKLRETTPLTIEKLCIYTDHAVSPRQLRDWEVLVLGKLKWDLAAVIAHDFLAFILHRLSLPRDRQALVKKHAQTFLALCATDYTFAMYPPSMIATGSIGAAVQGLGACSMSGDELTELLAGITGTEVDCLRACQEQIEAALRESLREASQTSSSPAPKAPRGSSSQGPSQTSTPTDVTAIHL

[5] = molecular target: T1, CDK1/cyclin A2; remark: listed apart in the source
[6] = molecular target: T2, CDK6/cyclin D3; remark: listed apart in the source
[7] = molecular target: T3, CDK2/cyclin E1; remark: listed apart in the source
[8] = molecular target: T4, CDK4/cyclin D3; remark: listed apart in the source
[9] = molecular target: T1, CDK1/cyclin A2; remark: listed apart in the source
[10] = molecular target: T3, CDK2/cyclin E1; remark: listed apart in the source
[11] = molecular target: T4, CDK4/cyclin D3; remark: listed apart in the source
[12] = molecular target: T1, CDK1/cyclin A2; remark: listed apart in the source
[13] = molecular target: T3, CDK2/cyclin E1; remark: listed apart in the source
[14] = molecular target: T4, CDK4/cyclin D3; remark: listed apart in the source
[15] = molecular target: T1, CDK1/cyclin A2; remark: listed apart in the source
[16] = molecular target: T2, CDK6/cyclin D3; remark: listed apart in the source
[17] = molecular target: T3, CDK2/cyclin E1; remark: listed apart in the source
[18] = molecular target: T4, CDK4/cyclin D3; remark: listed apart in the source

T1 sequence (P06493 whole entry, chain 1 of 2): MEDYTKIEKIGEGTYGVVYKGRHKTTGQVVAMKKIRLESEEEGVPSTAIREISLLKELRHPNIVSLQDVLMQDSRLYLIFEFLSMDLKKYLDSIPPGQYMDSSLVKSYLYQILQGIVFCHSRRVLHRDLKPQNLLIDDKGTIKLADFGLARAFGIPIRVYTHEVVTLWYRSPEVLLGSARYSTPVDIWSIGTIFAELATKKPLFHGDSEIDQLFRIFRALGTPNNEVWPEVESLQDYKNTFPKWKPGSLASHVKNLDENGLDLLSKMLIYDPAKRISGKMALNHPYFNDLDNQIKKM
T1 sequence (P20248 whole entry, chain 2 of 2): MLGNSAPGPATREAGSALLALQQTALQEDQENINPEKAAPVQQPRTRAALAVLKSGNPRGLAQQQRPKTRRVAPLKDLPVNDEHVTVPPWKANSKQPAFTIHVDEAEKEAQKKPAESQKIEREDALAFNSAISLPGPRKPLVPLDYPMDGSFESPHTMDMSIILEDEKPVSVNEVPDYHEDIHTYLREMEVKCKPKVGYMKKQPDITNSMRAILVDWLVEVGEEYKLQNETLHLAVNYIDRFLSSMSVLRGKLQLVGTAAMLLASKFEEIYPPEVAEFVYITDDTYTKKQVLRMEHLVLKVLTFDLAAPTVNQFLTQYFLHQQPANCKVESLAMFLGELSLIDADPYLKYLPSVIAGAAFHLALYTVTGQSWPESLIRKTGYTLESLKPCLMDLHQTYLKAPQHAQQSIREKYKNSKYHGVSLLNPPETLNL
T2 sequence (Q00534 whole entry, chain 1 of 2): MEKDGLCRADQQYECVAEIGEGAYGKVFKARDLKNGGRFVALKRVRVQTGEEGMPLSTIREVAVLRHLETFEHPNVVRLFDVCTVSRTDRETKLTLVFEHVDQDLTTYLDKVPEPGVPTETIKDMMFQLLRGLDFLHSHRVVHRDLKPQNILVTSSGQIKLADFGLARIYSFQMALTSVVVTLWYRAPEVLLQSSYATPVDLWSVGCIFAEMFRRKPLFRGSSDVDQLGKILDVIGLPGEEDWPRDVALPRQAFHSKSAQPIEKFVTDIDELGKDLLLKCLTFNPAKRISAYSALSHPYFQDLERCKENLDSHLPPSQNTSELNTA
T2 sequence (P30281 whole entry, chain 2 of 2): as the sequence (P30281 whole entry, chain 2 of 2) above

Binder: {Biotin-aminohexane}-GMPWSPNPWWRGGGG [Polypeptide 1]
- relative value of the luminescence intensity (Comparative Polypeptide 2 = 1.00) [1]: 2.24 relative value
- relative value of the luminescence intensity (Comparative Polypeptide 2 = 1.00) [2]: 7.06 relative value
- relative value of the luminescence intensity (Comparative Polypeptide 2 = 1.00) [3]: 6.12 relative value
- relative value of the luminescence intensity (Comparative Polypeptide 2 = 1.00) [4]: 18.6 relative value
- Luminescence intensity [5]: 9.32e+07
- Luminescence intensity [6]: 1.22e+08
- Luminescence intensity [7]: 9.92e+07
- Luminescence intensity [8]: 1.01e+08

Binder: {Biotin-aminohexane}-RRRFRPASPLRGPPK [Comparative Polypeptide 2]
- relative value of the luminescence intensity (Comparative Polypeptide 2 = 1.00) [1]: 1 relative value
- relative value of the luminescence intensity (Comparative Polypeptide 2 = 1.00) [2]: 1 relative value
- relative value of the luminescence intensity (Comparative Polypeptide 2 = 1.00) [3]: 1 relative value
- relative value of the luminescence intensity (Comparative Polypeptide 2 = 1.00) [4]: 1 relative value
- relative luminescence intensity (CDK6 = 100%) [9]: 318%
- relative luminescence intensity (CDK6 = 100%) [10]: 321%
- relative luminescence intensity (CDK6 = 100%) [11]: 245%
- Luminescence intensity [5]: 4.15e+07
- Luminescence intensity [6]: 1.73e+07
- Luminescence intensity [7]: 1.62e+07
- Luminescence intensity [8]: 5.44e+06
- relative luminescence intensity (CDK6 = 100%) [12]: 606%
- relative luminescence intensity (CDK6 = 100%) [13]: 198%
- relative luminescence intensity (CDK6 = 100%) [14]: 51%

Binder: {Biotin-aminohexane}-GAPWSPNDWWDGGGG [Polypeptide 27]
- relative reactivity (Polypeptide 3 = 100%) [15]: 13%
- relative reactivity (Polypeptide 3 = 100%) [16]: 33%
- relative reactivity (Polypeptide 3 = 100%) [17]: 20%
- relative reactivity (Polypeptide 3 = 100%) [18]: 37%

Binder: {Biotin-aminohexane}-GAPWSPDPWDDGGGG [Polypeptide 28]
- relative reactivity (Polypeptide 3 = 100%) [15]: 4%
- relative reactivity (Polypeptide 3 = 100%) [16]: 25%
- relative reactivity (Polypeptide 3 = 100%) [17]: 13%
- relative reactivity (Polypeptide 3 = 100%) [18]: 50%

Binder: {Biotin-aminohexane}-PYKISEGLPTPTKMTPRSRI [Comparative Polypeptide 1]
- relative value of the luminescence intensity (Comparative Polypeptide 2 = 1.00) [1]: 1.63 relative value
- relative value of the luminescence intensity (Comparative Polypeptide 2 = 1.00) [2]: 0.43 relative value
- relative value of the luminescence intensity (Comparative Polypeptide 2 = 1.00) [3]: 6.44 relative value
- relative value of the luminescence intensity (Comparative Polypeptide 2 = 1.00) [4]: 0.15 relative value
- Luminescence intensity [5]: 6.76e+07
- Luminescence intensity [6]: 7.42e+06
- Luminescence intensity [7]: 1.04e+08
- Luminescence intensity [8]: 811000

Binder: {Biotin-aminohexane}-PYKISEGLPTPTKMTPRSRI-NH2 [Comparative Polypeptide 3]
- relative luminescence intensity (CDK6 = 100%) [12]: 678%
- relative luminescence intensity (CDK6 = 100%) [13]: 766%
- relative luminescence intensity (CDK6 = 100%) [14]: 7%

Binder: {Biotin-aminohexane}-PYKISEGLPTPAKMAPRSRI-NH2 [Comparative Polypeptide 4]
- relative luminescence intensity (CDK6 = 100%) [12]: 3250%
- relative luminescence intensity (CDK6 = 100%) [13]: 2680%

Binder: {Biotin-aminohexane}-RRRFRPASPLDGPPD [Polypeptide 18]
- relative luminescence intensity (CDK6 = 100%) [9]: 22%
- relative luminescence intensity (CDK6 = 100%) [11]: 14%

Binder: {Biotin-aminohexane}-GGGKAPLTPKKAK [Comparative Polypeptide 5]
- relative luminescence intensity (CDK6 = 100%) [9]: 143%
- relative luminescence intensity (CDK6 = 100%) [10]: 156%
- relative luminescence intensity (CDK6 = 100%) [11]: 56%

Binder: {Biotin-aminohexane}-GGGKAPLTPKDAD [Polypeptide 22]
- relative luminescence intensity (CDK6 = 100%) [9]: 27%
- relative luminescence intensity (CDK6 = 100%) [10]: 15%
- relative luminescence intensity (CDK6 = 100%) [11]: 46%

Binder: {Biotin-aminohexane}-GGGKAPLTPLDAD [Polypeptide 23]
- relative luminescence intensity (CDK6 = 100%) [11]: 37%

Binder: {Biotin-aminohexane}-GGGRAAPLSPIPHIPR [Comparative Polypeptide 6]
- relative luminescence intensity (CDK6 = 100%) [9]: 119%
- relative luminescence intensity (CDK6 = 100%) [10]: 44%
- relative luminescence intensity (CDK6 = 100%) [11]: 190%

Binder: {Biotin-aminohexane}-GGGRAAPLSPDPHIPD [Polypeptide 24]
- relative luminescence intensity (CDK6 = 100%) [10]: 54%
- relative luminescence intensity (CDK6 = 100%) [11]: 54%

Binder: {Biotin-aminohexane}-GGGRAAPLSPIDHIPD [Polypeptide 25]
- relative luminescence intensity (CDK6 = 100%) [10]: 62%
- relative luminescence intensity (CDK6 = 100%) [11]: 40%

Binder: {Biotin-aminohexane}-LVEMTGLSPRVIRVW [Comparative Polypeptide 7]
- relative luminescence intensity (CDK6 = 100%) [9]: 1150%
- relative luminescence intensity (CDK6 = 100%) [10]: 10%
- relative luminescence intensity (CDK6 = 100%) [11]: 55%

Binder: {Biotin-aminohexane}-LVEMTGLSPRDIRVD [Polypeptide 26]
- relative luminescence intensity (CDK6 = 100%) [9]: 295%
- relative luminescence intensity (CDK6 = 100%) [11]: 18%

Binder: {Biotin-aminohexane}-GAPWSPNPWWRGGGG [Polypeptide 3]
- relative reactivity (Polypeptide 3 = 100%) [15]: 100%
- relative reactivity (Polypeptide 3 = 100%) [16]: 100%
- relative reactivity (Polypeptide 3 = 100%) [17]: 100%
- relative reactivity (Polypeptide 3 = 100%) [18]: 100%

Reference: patent publication US20180334702A1 (SYSMEX, published 2018)
